The source of these data is US20010041790A1.

The target in the assay is 35S-labeled hamster PrPsen, glycophosphoinositol-negative form (35S-HaPrPsen) (Syrian golden hamster) (UniProt P04273). Kind of assay: cell-based or functional assay.

The substance HaP109-141(del113-116) (peptide) registered an IC50 of the conversion reaction of 70 µM.
